This note sets out measurements from PMC12747262 (bioRxiv, 2025).

What is called Kd is the constant that tells how readily two partners part at equilibrium. Low readings indicate higher affinity, high ones lower affinity.

The labels stand for the following.
T1: TTC7B (from the E. coli dimers) (UniProt Q86TV6 1-843)
T1 sequence: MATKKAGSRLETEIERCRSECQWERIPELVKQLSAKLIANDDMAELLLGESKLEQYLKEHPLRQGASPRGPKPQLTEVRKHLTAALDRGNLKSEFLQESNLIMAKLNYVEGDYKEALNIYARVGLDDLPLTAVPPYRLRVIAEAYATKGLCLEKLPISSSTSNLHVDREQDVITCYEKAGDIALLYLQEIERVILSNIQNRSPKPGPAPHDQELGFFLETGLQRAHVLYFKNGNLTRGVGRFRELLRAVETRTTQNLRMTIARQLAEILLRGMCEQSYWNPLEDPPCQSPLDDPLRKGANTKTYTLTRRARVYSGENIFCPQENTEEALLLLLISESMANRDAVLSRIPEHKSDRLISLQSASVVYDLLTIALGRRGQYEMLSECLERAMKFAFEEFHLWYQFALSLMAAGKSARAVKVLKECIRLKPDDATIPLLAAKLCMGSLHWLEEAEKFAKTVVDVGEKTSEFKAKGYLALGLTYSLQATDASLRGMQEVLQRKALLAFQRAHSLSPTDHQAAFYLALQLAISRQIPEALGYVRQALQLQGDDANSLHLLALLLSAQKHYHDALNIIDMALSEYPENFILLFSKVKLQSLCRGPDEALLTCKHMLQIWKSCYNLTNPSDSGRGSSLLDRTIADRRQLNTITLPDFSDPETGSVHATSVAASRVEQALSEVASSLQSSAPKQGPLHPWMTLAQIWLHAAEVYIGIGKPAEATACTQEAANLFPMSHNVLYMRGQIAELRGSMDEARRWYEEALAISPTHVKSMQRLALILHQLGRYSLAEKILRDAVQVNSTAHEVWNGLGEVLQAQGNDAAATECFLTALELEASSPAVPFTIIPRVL

B1: FAM126B (1–308) (from the E. coli dimer) (domain or fragment)
chain: MLGTDRCVVEEWLSEFKALPDTQITSYAATLHRKKTLVPALYKVIQDSNNELLEPVCHQLFELYRSSEVRLKRFTLQFLPELMWVYLRLTVSRDRQSNGCIEALLLGIYNLEIADKDGNNKVLSFTIPSLSKPSIYHEPSTIGSMALTEGALCQHDLIRVVYSDLHPQRETFTAQNRFEVLSFLMLCYNSAIVYMPASSYQSLCRMGSRVCVSGFPRQHEKHWKELCGRIVLDPEFMVQLLTGVYYAMYNGQWDLGQEVLDDIIYRAQLELFSQPLLVANAMKNSLPFDAPDSTQEGQKVLKVEVTPT
B2: FAM126B (1–308) (from the Sf9 dimer) (domain or fragment)
chain: B1 chain
B3: TTC7B (from the Sf9 PI4KA complex) (natural protein)
chain: T1 sequence
B4: TTC7A (natural protein)
chain: MAAKGAHGSYLKVESELERCRAEGHWDRMPELVRQLQTLSMPGGGGNRRGSPSAAFTFPDTDDFGKLLLAEALLEQCLKENHAKIKDSMPLLEKNEPKMSEAKNYLSSILNHGRLSPQYMCEAMLILGKLHYVEGSYRDAISMYARAGIDDMSMENKPLYQMRLLSEAFVIKGLSLERLPNSIASRFRLTEREEEVITCFERASWIAQVFLQELEKTTNNSTSRHLKGCHPLDYELTYFLEAALQSAYVKNLKKGNIVKGMRELREVLRTVETKATQNFKVMAAKHLAGVLLHSLSEECYWSPLSHPLPEFMGKEESSFATQALRKPHLYEGDNLYCPKDNIEEALLLLLISESMATRDVVLSRVPEQEEDRTVSLQNAAAIYDLLSITLGRRGQYVMLSECLERAMKFAFGEFHLWYQVALSMVACGKSAYAVSLLRECVKLRPSDPTVPLMAAKVCIGSLRWLEEAEHFAMMVISLGEEAGEFLPKGYLALGLTYSLQATDATLKSKQDELHRKALQTLERAQQLAPSDPQVILYVSLQLALVRQISSAMEQLQEALKVRKDDAHALHLLALLFSAQKHHQHALDVVNMAITEHPENFNLMFTKVKLEQVLKGPEEALVTCRQVLRLWQTLYSFSQLGGLEKDGSFGEGLTMKKQSGMHLTLPDAHDADSGSRRASSIAASRLEEAMSELTMPSSVLKQGPMQLWTTLEQIWLQAAELFMEQQHLKEAGFCIQEAAGLFPTSHSVLYMRGRLAEVKGNLEEAKQLYKEALTVNPDGVRIMHSLGLMLSRLGHKSLAQKVLRDAVERQSTCHEAWQGLGEVLQAQGQNEAAVDCFLTALELEASSPVLPFSIIPREL
B5: FAM126A (1–308) (from the Sf9 complexes) (domain or fragment)
chain: MFTSEKGVVEEWLSEFKTLPETSLPNYATNLKDKSSLVSSLYKVIQEPQSELLEPVCHQLFEFYRSGEEQLLQFTLQFLPELIWCYLAVSASRNVHSSGCIEALLLGVYNLEIVDKQGHTKVLSFTIPSLSKPSVYHEPSSIGSMALTESALSQHGLSKVVYSGPHPQREMLTAQNRFEVLTFLLLCYNAALTYMPSVSLQSLCQICSRICVCGYPRQHVRKYKGISSRIPVSSGFMVQMLTGIYFAFYNGEWDLAQKALDDIIYRAQLELYPEPLLVANAIKASLPHGPMKSNKEGTRCIQVEITPT
B6: His-tagged MBP-EFR3B (716–787) (domain or fragment)
chain: VPAEEITYETLKKAIVDSVAVEEQERERRRQVVEKFQKAPFEEIAAHCGARASLLQSKLNQIFEITIRPPPS

Test [1] addresses T1, TTC7B (from the E. coli dimers). Nature of the test: SEC.
The target of test [2] is B4. Nature of the test: SEC. For orientation: In gel filtration, larger molecules generally elute earlier.
Test [3] has as its target T2, PI4KA (UniProt P42356 1-2102). Nature of the test: cryo-EM structure.
Test [4] has as its target T2, PI4KA. Kind of test: SEC.
The target in test [5] is TTC7B-FAM126A (1–308) heterodimer (UniProt Q86TV6;Q9BYI3). Kind of test: BLI. (In general: Biolayer interferometry detects binding as a change in optical thickness at a sensor tip.)
Test [6] has as its target TTC7B-FAM126B (1–308) heterodimer (UniProt Q86TV6;Q8IXS8). Kind of test: BLI.
Test [7] deals with TTC7A-FAM126A (1–308) heterodimer (UniProt Q9ULT0;Q9BYI3). Kind of test: BLI.
The target of test [8] is TTC7A-FAM126B (1–308) heterodimer (UniProt Q9ULT0;Q8IXS8). Kind of test: BLI.

Turning to B1, the binding result in test [1] is “binds”.

As for B2, in test [2], the binding result is “binds”.

Turning to B3, the binding result in test [3] is given as “binds”.

B4: the binding result in test [4] is reported as “binds”.

With B5, in test [2], the binding result is reported as “binds”.

Consider B6, for which the Kd in test [5] and in test [6] was ~0.3 nM each time. Besides, the binding result in test [7] and in test [8] was “binds” each time.
